Test results published in patent US20220267421A1 (INVOX PHARMA, published 2022).
Substitutions are numbered along the chain they refer to.

T1: cynomolgus MSLN-His-Avi (cynomolgus, single biotin (BirA) in the biotinylated form)
T1 construct: Monomeric, made in HEK293-6E; also called cMSLN-His-Avi; cyno MSLN-His-Avi
T1 chain: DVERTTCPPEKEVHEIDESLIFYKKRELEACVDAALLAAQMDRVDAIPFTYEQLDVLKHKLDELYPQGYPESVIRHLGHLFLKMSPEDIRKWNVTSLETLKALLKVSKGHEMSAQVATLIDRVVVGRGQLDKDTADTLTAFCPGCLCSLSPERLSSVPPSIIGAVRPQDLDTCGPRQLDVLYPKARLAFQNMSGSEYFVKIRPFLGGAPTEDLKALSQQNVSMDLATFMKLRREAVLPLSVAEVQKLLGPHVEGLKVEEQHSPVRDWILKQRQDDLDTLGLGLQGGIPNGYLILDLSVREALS

B1: FS22-053-008-AA/FS28-256-012 mAb^2 (bispecific antibody, human IgG1, kappa, L234A L235A, V domains shown)
VH: EVQLLESGGGLVQPGGSLRLSCAASGFTFTHTYMSWVRQAPGKGLEWVSNISPTYSTTNYADSVKGRFTISRDNNKNTLYLQMNSLRAEDTAVYYCARYNAYHAALDYWGQGTLVTVSS
VL: EIVLTQSPGTLSLSPGERATLSCRASQSVSSSYLAWYQQKPGQAPRLLIYGASSRATGIPDRFSGSGSGTDFTLTISRLEPEDFAVYYCQQSYYYPITFGQGTKVEIKR
B2: FS22-053-008-AA/FS28-256-026 mAb^2 (bispecific antibody, human IgG1, kappa, L234A L235A, V domains shown)
VH: B1 VH with H31Q, N75S, H103Q, A104I, A105G
VL: B1 VL with S92A, Y93L, Y94G, I97H
B3: FS22-053-008-AA/FS28-256-027 mAb^2 (bispecific antibody, human IgG1, kappa, L234A L235A, V domains shown)
VH: B1 VH
VL: B1 VL with S92T, Y93V, Y94P, I97Y
B4: FS22-053-008-AA/FS28-256-023 mAb^2 (bispecific antibody, human IgG1, kappa, L234A L235A, V domains shown)
VH: B1 VH with H31Q, N75S, H103Q, A104I, A105G
VL: B1 VL with S92H, Y93N, Y94Q, I97N
B5: FS22-053-008-AA/FS28-256-024 mAb^2 (bispecific antibody, human IgG1, kappa, L234A L235A, V domains shown)
VH: B1 VH
VL: B1 VL with S92A, Y93L, Y94G, I97H
B6: FS22-053-008-AA/FS28-256-021 mAb^2 (bispecific antibody, human IgG1, kappa, L234A L235A, V domains shown)
VH: B1 VH
VL: B1 VL with S92H, Y93N, Y94Q, I97N
B7: G1-AA/FS28-256 (antibody, human IgG1, kappa, L234A L235A, V domains shown)
VH: B1 VH with H31N, N75S, A101S, H103Q, A104G, A105G
VL: B1 VL
notes: IgG1 LALA

The binders below were run against T2, cell surface human mesothelin (MSLN) (human, UniProt Q13421 296-598) (assay: flow cytometry, NCI-H226 cells).
T2 construct: whole, on cells; also called cell surface MSLN
T2 sequence (Q13421 other isoform, or with tags, fused parts or gaps limits assumed): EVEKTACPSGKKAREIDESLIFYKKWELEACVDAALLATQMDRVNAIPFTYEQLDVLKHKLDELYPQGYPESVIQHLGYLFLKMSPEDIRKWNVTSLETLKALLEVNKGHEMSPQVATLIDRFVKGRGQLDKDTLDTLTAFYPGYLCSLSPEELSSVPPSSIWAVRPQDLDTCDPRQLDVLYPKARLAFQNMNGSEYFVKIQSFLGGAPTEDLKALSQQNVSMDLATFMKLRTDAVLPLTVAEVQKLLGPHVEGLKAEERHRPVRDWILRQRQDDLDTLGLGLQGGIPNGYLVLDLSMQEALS
Description: (§1) Cells were centrifuged at 1200 rpm for 3 min and resuspended in ice cold FACS buffer made up of DPBS (Life Technologies, 14190169) and 1% BSA (Sigma-Aldrich, A7906) at 2×10⁶ cells/ml and 50 μl per well was seeded in a 96-well V-bottom plate (Costar, 3894). All mAbs tested were diluted in FACS buffer in 120 μl at a concentration range of 0.01-200 nM (4-fold dilutions). The NCI-H226 cells were then centrifuged, supernatant removed and cells resuspended in 100 μl of each mAb dilution and incubated at 4° C. for 45 min. Cells were washed twice by centrifugation with 150 μl FACS buffer, resuspended in 100 μl containing goat anti-human IgG (γ-chain specific) F(ab′)2 fragment-R-Phycoerythrin antibody (Sigma, P8047) diluted 1:1000 in FACS buffer and incubated at 4° C. for 45 min. The cells were washed once with 150 μl FACS buffer and then with 150 μl DPBS, resuspended in 150 μl DPBS containing DAPI (Biotium, 40043) at 1:10.000 and read on the BDCantoll or iQue (Intellicyt). Data was analysed using FlowJo v10 to determine the signal geometric mean for PE for live cells in each well.
(§2) Cell binding assays using OVCAR-3 cells were performed similarly to the assays described in section 2.4. The effect of the presence of soluble MSLN was tested by pre-incubating the antibodies in the presence or absence of soluble MSLN before mixing with cells and determining if the pre-incubation affected binding to MSLN on the cell surface. […] 60 μl from each well was then added to either FACS buffer alone or to FACS buffer containing 60 μl of 40 nM recombinant hMSLN (R&D systems, 3265-MS-050) (to give a final concentration of 20 nM hMSLN) and pre-incubated at room temperature for 1 hour before 100 μl was added to the cells. Bound antibody was detected using goat anti-human anti-Fcγ Alexa-Fluor 488 (Jackson Immunoresearch, 109-546-098).
(§3) The method used was exactly as described in section 3.1.4.
B1 was tested, and the EC50 was 8.48 nM and the “Emax (MFI)” value was 969000 MFI.
For B2, the EC50 was 2.43 nM and the “Emax (MFI)” value was 741000 MFI.
With B3 the EC50 was 3.93 nM and the “Emax (MFI)” value was 987000 MFI.
With B4 the EC50 was 3.29 nM and the “Emax (MFI)” value was 856000 MFI.
In the case of B5, the EC50 is reported as 3.88 nM and the “Emax (MFI)” value is reported as 813000 MFI.
B6 was tested, and the EC50 was 3.29 nM and the “Emax (MFI)” value was 919000 MFI.

Each binder was assayed against T3, human MSLN-His-Avi (human, UniProt Q13421 296-598, single biotin (BirA) in the biotinylated form) (assay: SPR (Biacore), MSLN immobilised, mAb^2 injected).
T3 construct: Monomeric, made in HEK293-6E; Used both immobilised and in solution; also called hMSLN-His-Avi; biotinylated hMSLN-His-Avi
T3 sequence (Q13421 other isoform, or with tags, fused parts or gaps): as the sequence (Q13421 other isoform, or with tags, fused parts or gaps limits assumed) above
Description: (§4) Human MSLN-His-Avi was immobilised on flow cell 2 on a CM5 Series S BIAcore sensor chip (GE Healthcare, BR100530) using an amine coupling kit (GE Healthcare, BR10050) to approximately 200 response units (RU). Flow cell 1 was left blank for subtraction. HEK293-6E supernatants or purified proteins were adjusted with HBS-EP+(GE Healthcare) to approximately 50 nM anti-MSLN mAb per sample. Samples were injected over flow cell 1 and 2 for 2.5 min at 30 μl/min and then allowed to dissociate in HBS-EP buffer for 2.5 min. Regeneration was achieved by injecting 10 mM glycine pH 1.5 (GE Healthcare, BR100354) for 30 seconds at a rate of 30 μl/min. Subtracted data (flow cell 2−flow cell 1) were analysed using BIAevaluation 3.2 Software (GE Healthcare).
(§5) Binding of the selected anti-MSLN clones in mAb² format, to recombinant human and cyno MSLN-His-Avi antigen was measured by SPR using a Biacore T200 processing unit (GE Healthcare). As previously described, it was desirable to bind more strongly to immobilised antigen than to soluble antigen. To assess the binding properties of the clones, binding kinetics to immobilised MSLN antigen were determined as described in section 2.1.2 and compared to the kinetics obtained when MSLN antigens in solution bound to captured clones.
For B1, the Kd was 4.1 nM.
In the case of B2, the Kd is reported as 3.2 nM.
Work on B3 yielded a Kd of 1.1 nM.
For B4, the Kd was 3.3 nM.
With B5 the Kd was 6.7 nM.
For B6, the Kd was 3.3 nM.

What follows are binders tested against T3, human MSLN-His-Avi (assay: SPR (Biacore), mAb^2 captured on Protein G, MSLN in solution injected).
Description: as §5
(§6) For the capture experiments, clones in mAb² format were captured using a BIAcore sensor series S chip Protein G (GE Healthcare, 29179315). mAb² diluted in HBS-EP buffer (GE Healthcare, BR100188) containing 900 mM […] at 1 μg/ml, were injected individually on flow cell 2, 3 and 4 at 30 μl/min to achieve a response of approximately 100 RU. G1-AA/HeID1.3 was captured on flow cell 1. The recombinant human and cyno MSLN-His-Avi (section 1.1), diluted in HBS-EP buffer containing 900 mM […], were injected on flow cell 1, 2, 3 or 4 as appropriate at a concentration range of 1000 nM to 0.051 nM with 3-fold dilutions for 5 minutes at 70 μl/min and then allowed to dissociate in buffer for 5 minutes. Regeneration was achieved by injecting 10 mM glycine pH1.5 (GE Healthcare, BR100354) and surfactant P20 (GE Healthcare, BR-1000-54) for 20 seconds at a rate of 30 μl/min. Subtracted data (flow cell 2−flow cell 1, flow cell 3−flow cell 1, or flow cell 4−flow cell 1) were analysed using BIAevaluation 3.2 Software (GE Healthcare) to identify binding using the model 1:1 binding, local Rmax and with refractive index (RI) constant 0.
Work on B1 yielded a Kd of 861 nM.
For B2, the Kd was 62.3 nM.
With B3 the Kd was 6 nM.
B4 was tested, and the Kd was 68.6 nM.
B5 showed a Kd of 95.4 nM.
B6 gave a Kd of 23.2 nM.

Target: T1, cynomolgus MSLN-His-Avi
Test: as above
Description: as §5, §6
Binder B1 has a Kd of 717 nM.
B2 gave a Kd of 33.2 nM.
In the case of B3, the Kd is reported as 0.7 nM.
B4 gave a Kd of 32.6 nM.
B5 showed a Kd of 56.7 nM.
Work on B6 yielded a Kd of 16.2 nM.

What follows are binders tested against T2, cell surface human mesothelin (MSLN) (assay: flow cytometry, NCI-H226 cells (n = 3)).
Description: Briefly, NCI-H226 cells (ATCC CRL-5826) were harvested from T175 cell culture flasks using StemPro Accutase (Gibco, A11105-01). Cells were centrifuged at 1200 rpm for 3 min and resuspended in ice cold FACS buffer made up of DPBS (Life Technologies, 14190169) and 1% BSA (Sigma-Aldrich, A7906) at 2×10⁶ cells/ml and 50 μl per well was seeded in a 96-well V-bottom plate (Costar, 3894). All mAbs tested were diluted in FACS buffer in 120 μl at a concentration range of 0.01-200 nM (4-fold dilutions). The NCI-H226 cells were then centrifuged, supernatant removed and cells resuspended in 100 μl of each mAb dilution and incubated at 4° C. for 45 min. Cells were washed twice by centrifugation with 150 μl FACS buffer, resuspended in 100 μl containing goat anti-human IgG (γ-chain specific) F(ab′)2 fragment-R-Phycoerythrin antibody (Sigma, P8047) diluted 1:1000 in FACS buffer and incubated at 4° C. for 45 min. The cells were washed once with 150 μl FACS buffer and then with 150 μl DPBS, resuspended in 150 μl DPBS containing DAPI (Biotium, 40043) at 1:10.000 and read on the BDCantoll or iQue (Intellicyt). Data was analysed using FlowJo v10 to determine the signal geometric mean for PE for live cells in each well.
In the case of B7, the EC50 is reported as 33.1 nM and the “Emax (MFI signal)” value is reported as 4250 MFI.

These binders were tested against T3, human MSLN-His-Avi (assay: SPR (Biacore), hMSLN-His-Avi immobilised at 100 RU, mAb injected).
Description: as §4
(§7) For each bin described in 2.1.3, the binding kinetics were determined using the same method as described in section 2.1.2, except that human or cyno MSLN-His-Avi was immobilised at 50 or 100 RU. Clones were tested at a concentration range of 81 nM to 0.33 nM in 3-fold dilutions.
Binder B7 has a Kd of 23.2 nM.

The binders below were run against T3, human MSLN-His-Avi (assay: SPR (Biacore), hMSLN-His-Avi immobilised at 50 RU, mAb injected).
Description: as §4, §7
In the case of B7, the Kd is reported as 26.2 nM.

What follows are binders tested against T2, cell surface human mesothelin (MSLN) (assay: flow cytometry, NCI-H226 cells + 20 nM soluble MSLN).
Description: as §1, §2, §3
B1 was tested, and the EC50 was 4.83 nM and the “Emax (MFI)” value was 790000 MFI.
B2 was tested, and the EC50 was 4.59 nM and the “Emax (MFI)” value was 715000 MFI.
B3 was tested, and the EC50 was 21.8 nM and the “Emax (MFI)” value was 964000 MFI.
For B4, the EC50 was 3.9 nM and the “Emax (MFI)” value was 716000 MFI.
For B5, the EC50 was 3.91 nM and the “Emax (MFI)” value was 669000 MFI.
In the case of B6, the EC50 is reported as 7.65 nM and the “Emax (MFI)” value is reported as 839000 MFI.

The binders below were run against T3, human MSLN-His-Avi (assay: ratio of the two SPR KD).
Description: as §4, §5
as §6, with “μl/min.” for “μl/min. Subtracted data (flow cell 2−flow cell 1, flow cell 3−flow cell 1, or flow cell 4−flow cell 1) were analysed using BIAevaluation 3.2 Software (GE Healthcare) to identify binding using the model 1:1 binding, local Rmax and with refractive index (RI) constant 0.”
For B1, the “Ratio of KD in solution/immobilised for human MSLN-His-Avi” value (“Ratio of KD in solution/immobilised” below) was 209.
With B2 the “Ratio of KD in solution/immobilised” value was 19.5.
For B3, the “Ratio of KD in solution/immobilised” value was 5.3.
In the case of B4, the “Ratio of KD in solution/immobilised” value is reported as 20.8.
B5 was tested, and the “Ratio of KD in solution/immobilised” value was 14.3.
B6 was tested, and the “Ratio of KD in solution/immobilised” value was 7.
